Laboratory results: PMC4932547, “Improved Aptamers for the Diagnosis and Potential Treatment of HER2-Positive Cancer”

Target: HER2 extracellular domain (UniProt P04626 23-652)
Assay: SPRi; 5 mM Mg2+; negative aptamer spots subtracted; Selection buffer: 10 mM HEPES, 120 mM NaCl, 5 mM MgCl2, 5 mM KCl; pH not stated; SPRi temperature not stated (50 uL/min, 50 or 100 nM HER2, BSA-blocked chip); cell assays at 37 C
Settings: protein: commercial

## ATTAAGAACCATCACTCTTCCAAATGGATATACGACTGGG (ssDNA, 5' hexyl-disulfide) [HeA2_1]
  Kd: 28.9 nM

## TCTAAAAGGATTCTTCCCAAGGGGATCCAATTCAAACAGC (ssDNA, 5' hexyl-disulfide) [HeA2_3]
  Kd: 6.2 nM
